Biological target: CDC42 (cell division cycle 42) (rat (endogenous in rat testis)) (UniProt Q8CFN2)
Test: proximity ligation; Duolink II in situ PLA on Bouin-fixed, paraffin-embedded rat testis sections; antigen retrieval in citrate buffer (10 mM, pH 6.0, 0.05% Tween 20); anti-ApoH goat polyclonal 2.5 ug/ml and anti-CDC42 rabbit polyclonal 5 ug/ml; probes anti-rabbit PLUS and anti-goat MINUS; controls with one primary antibody only

UniProt Q8CFN2, sequence (Q8CFN2 whole entry): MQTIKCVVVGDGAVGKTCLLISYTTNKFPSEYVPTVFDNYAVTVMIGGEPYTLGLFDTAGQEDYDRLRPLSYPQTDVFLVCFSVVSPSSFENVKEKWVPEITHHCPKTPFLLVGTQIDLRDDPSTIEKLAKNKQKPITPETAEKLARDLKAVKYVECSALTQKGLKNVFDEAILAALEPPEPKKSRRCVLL

APOH (apolipoprotein H) (from UniProt P26644 20-297) (natural protein)
PLA signals per 0.25 mm^2 (PLA signals/0.25 mm^2): 312

Source: PMC4128672
